# According to FireProtDB (doi:10.1021/bi000176d):
# Several values for one entry are separate records, joined by “and”; a condition that tells them apart may be missing. Identical values can stand only once.
# B1: Glutathione S-transferase A1 wild type, P08263 (protein)
# chain: MAEKPKLHYFNARGRMESTRWLLAAAGVEFEEKFIKSAEDLDKLRNDGYLMFQQVPMVEIDGMKLVQTRAILNYIASKYNLYGKDIKERALIDMYIEGIADLGEMILLLPVCPPEEKDAKLALIKEKIKNRYFPAFEKVLKSHGQDYLVGNKLSRADIHLVELLYYVEELDSSLISSFPLLKALKTRISNLPTVKKFLQPGSPRKPPMDEKSLEEARKIFRF
# Conditions: Homo sapiens, pH 7, 25 °C, Sodium phosphate 20 mM, NaCl 100 mM, transition: 3, reversible: yes, whole UniProt chain shown
protein,measurement,setting,value
B1,denaturant midpoint (higher = more stable),"GdnHCl, Absorbance",1.5 M and 1.3 M and 2.3 M
same,unfolding free energy,"GdnHCl, Absorbance",8.96 kcal/mol and 10.2 kcal/mol and 11.8 kcal/mol
same,denaturant m value,"GdnHCl, CD",4.8 kcal/mol/M
same,denaturant midpoint (higher = more stable),"GdnHCl, CD",2.2 M
same,unfolding free energy,"GdnHCl, CD",17 kcal/mol
same,denaturant midpoint (higher = more stable),"GdnHCl, Fluorescence",1.8 M and 1.1 M and 2.4 M
same,denaturant m value,"Urea, Absorbance",2.12 kcal/mol/M and 2.31 kcal/mol/M
same,denaturant midpoint (higher = more stable),"Urea, Absorbance",4.8 M and 4.1 M
same,unfolding free energy,"Urea, Absorbance",14 kcal/mol and 12.7 kcal/mol
same,denaturant m value,"Urea, CD",3.38 kcal/mol/M and 3.67 kcal/mol/M
same,denaturant midpoint (higher = more stable),"Urea, CD",5.3 M and 4.8 M
same,unfolding free energy,"Urea, CD",19.6 kcal/mol and 17.1 kcal/mol
